# According to paper PMC10782416, “Fluorescence Correlation Spectroscopy as a Versatile Method to Define Aptamer–Protein Interactions with Single-Molecule Sensitivity”:
# B1: AS1411 (structured_DNA)
# DNA: TTTGGTGGTGGTGGTTGTGGTGGTGGTGG
# B2: 36t (structured_DNA)
# DNA: CACAGGCTACGGCACGTAGAGCATCACCATGATCCTGTG
# B3: CLN3 (structured_DNA)
# DNA: ATCAGGTGGATGGTAGCTCGGTCGGGGTGGGTGGGTTGGCAAGTCTGATTA
# B4: G5mut (ssDNA)
# DNA: ATCAGGCTGGATGGTAGCTCGGTCGATGTGGATGGTTTGTCAAGTCTGATTA
# Assays:
# nucleolin (NCL) = nucleolin (NCL) (Homo sapiens, UniProt P19338 1-710); assay: FCS; 1 mM Mg2+ in folding buffer; PBS pH 7.4; aptamer folded in PBS with 5 mM MgCl2 (1 mM for AS1411 and 36t), 90 C 2 min then cooled; final buffer not detailed; overnight at room temperature; 100 pM aptamer (1 nM for serum proteins); settings: protein: commercial; label: 5'-atto633
# Chain of nucleolin (NCL) (P19338 whole entry): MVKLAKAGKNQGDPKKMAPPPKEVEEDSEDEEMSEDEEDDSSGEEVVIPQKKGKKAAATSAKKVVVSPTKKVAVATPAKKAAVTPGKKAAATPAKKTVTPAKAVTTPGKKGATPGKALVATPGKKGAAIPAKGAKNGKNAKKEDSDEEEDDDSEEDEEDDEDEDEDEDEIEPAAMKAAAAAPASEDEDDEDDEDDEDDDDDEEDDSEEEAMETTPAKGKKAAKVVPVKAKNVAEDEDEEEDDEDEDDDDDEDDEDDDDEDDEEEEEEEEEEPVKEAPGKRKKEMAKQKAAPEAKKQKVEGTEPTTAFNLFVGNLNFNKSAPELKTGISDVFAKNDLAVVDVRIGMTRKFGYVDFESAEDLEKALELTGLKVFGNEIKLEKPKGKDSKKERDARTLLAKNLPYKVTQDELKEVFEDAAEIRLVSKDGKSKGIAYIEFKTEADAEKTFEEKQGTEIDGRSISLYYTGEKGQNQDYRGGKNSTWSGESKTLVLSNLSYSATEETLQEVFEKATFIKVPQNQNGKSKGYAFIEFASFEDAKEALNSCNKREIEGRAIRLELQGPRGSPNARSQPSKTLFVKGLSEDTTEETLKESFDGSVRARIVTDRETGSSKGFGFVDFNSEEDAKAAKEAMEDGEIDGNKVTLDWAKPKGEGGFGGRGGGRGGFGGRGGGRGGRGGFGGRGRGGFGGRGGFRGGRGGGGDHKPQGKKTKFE
# PDGF-BB = PDGF-BB (Homo sapiens, UniProt P01127 82-190); assay: FCS; 1 mg/mL BSA; 1 mM Mg2+ in folding buffer; titration regime; PBS pH 7.4; aptamer folded in PBS with 5 mM MgCl2 (1 mM for AS1411 and 36t), 90 C 2 min then cooled; final buffer not detailed; overnight at room temperature; 100 pM aptamer (1 nM for serum proteins); settings: protein: commercial; chain copies: 2; label: 5'-atto633
# Chain of PDGF-BB (P01127 82-190): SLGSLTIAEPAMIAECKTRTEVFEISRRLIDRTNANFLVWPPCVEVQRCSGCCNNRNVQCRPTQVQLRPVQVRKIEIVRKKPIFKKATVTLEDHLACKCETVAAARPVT
# [1] = target: T1, c-Met (soluble recombinant, hepatocyte growth factor receptor) (Homo sapiens, UniProt P08581 25-932); assay: FCS; 5 mM Mg2+ in folding buffer; 100 pM aptamer; PBS pH 7.4; aptamer folded in PBS with 5 mM MgCl2 (1 mM for AS1411 and 36t), 90 C 2 min then cooled; final buffer not detailed; overnight at room temperature; 100 pM aptamer (1 nM for serum proteins); settings: protein: commercial; tags: polyhistidine tag; label: 5'-atto633; G-quadruplex
# T1 sequence (P08581 25-932): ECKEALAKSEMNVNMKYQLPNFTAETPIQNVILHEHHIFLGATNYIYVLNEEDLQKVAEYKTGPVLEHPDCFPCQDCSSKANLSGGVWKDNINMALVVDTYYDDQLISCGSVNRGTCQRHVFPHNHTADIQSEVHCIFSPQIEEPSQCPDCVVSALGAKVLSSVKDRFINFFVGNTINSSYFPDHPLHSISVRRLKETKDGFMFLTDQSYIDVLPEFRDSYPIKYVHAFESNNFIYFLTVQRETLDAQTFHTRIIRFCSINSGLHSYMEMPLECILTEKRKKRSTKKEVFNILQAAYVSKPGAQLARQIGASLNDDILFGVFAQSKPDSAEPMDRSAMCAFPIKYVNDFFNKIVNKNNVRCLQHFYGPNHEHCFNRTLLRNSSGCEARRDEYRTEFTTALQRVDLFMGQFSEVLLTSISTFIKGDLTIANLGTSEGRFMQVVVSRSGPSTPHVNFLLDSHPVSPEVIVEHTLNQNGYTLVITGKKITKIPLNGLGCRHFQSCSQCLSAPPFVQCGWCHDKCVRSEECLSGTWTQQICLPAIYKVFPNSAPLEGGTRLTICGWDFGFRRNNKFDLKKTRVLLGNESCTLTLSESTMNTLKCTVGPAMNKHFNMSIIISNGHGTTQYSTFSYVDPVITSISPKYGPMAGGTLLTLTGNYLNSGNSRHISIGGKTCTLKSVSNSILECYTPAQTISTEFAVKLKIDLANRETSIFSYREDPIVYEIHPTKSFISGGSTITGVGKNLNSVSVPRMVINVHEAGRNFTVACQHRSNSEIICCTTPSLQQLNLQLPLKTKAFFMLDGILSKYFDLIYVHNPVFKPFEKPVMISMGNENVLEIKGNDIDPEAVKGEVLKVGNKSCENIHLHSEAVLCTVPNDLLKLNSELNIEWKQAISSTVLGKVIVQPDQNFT
# fibrinogen (Fibr) = fibrinogen (Fibr) (Homo sapiens, UniProt P02671;P02675;P02679 20-629;31-491;27-433); assay: FCS; fibrinogen 1-10 uM; PBS pH 7.4; aptamer folded in PBS with 5 mM MgCl2 (1 mM for AS1411 and 36t), 90 C 2 min then cooled; final buffer not detailed; overnight at room temperature; 100 pM aptamer (1 nM for serum proteins); settings: protein: native; chain copies: 2;2;2; label: 5'-atto633; G-quadruplex
# Chain of fibrinogen (Fibr) (P02671 20-629, chain 1 of 3): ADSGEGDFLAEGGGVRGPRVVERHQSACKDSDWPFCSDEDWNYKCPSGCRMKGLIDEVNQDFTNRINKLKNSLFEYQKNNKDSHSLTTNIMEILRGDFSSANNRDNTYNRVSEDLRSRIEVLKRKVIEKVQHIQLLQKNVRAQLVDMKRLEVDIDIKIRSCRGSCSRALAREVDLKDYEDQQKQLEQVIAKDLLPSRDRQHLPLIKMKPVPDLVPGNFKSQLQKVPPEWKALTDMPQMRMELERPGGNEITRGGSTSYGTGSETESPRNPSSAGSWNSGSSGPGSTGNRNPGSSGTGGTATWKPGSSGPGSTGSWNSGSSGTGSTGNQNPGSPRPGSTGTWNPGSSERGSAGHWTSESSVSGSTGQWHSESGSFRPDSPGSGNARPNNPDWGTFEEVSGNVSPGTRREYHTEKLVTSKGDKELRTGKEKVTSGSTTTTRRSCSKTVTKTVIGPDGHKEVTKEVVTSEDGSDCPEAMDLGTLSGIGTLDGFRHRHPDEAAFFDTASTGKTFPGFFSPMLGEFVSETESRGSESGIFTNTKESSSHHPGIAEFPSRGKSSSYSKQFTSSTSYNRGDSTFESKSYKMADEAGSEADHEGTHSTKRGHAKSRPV
# Chain of fibrinogen (Fibr) (P02675 31-491, chain 2 of 3): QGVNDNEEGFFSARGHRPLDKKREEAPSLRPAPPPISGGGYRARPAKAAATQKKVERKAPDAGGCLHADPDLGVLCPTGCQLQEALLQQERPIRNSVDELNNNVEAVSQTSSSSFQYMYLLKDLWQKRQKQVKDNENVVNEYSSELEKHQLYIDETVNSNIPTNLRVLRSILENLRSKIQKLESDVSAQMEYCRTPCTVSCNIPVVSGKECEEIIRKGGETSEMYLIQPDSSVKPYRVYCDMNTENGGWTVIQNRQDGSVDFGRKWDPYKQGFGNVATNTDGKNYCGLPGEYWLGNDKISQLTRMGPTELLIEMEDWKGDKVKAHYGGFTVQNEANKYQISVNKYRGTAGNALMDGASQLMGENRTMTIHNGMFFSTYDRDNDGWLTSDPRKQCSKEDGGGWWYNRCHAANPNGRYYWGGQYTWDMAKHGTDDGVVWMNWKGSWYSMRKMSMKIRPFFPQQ
# Chain of fibrinogen (Fibr) (P02679 27-433, chain 3 of 3): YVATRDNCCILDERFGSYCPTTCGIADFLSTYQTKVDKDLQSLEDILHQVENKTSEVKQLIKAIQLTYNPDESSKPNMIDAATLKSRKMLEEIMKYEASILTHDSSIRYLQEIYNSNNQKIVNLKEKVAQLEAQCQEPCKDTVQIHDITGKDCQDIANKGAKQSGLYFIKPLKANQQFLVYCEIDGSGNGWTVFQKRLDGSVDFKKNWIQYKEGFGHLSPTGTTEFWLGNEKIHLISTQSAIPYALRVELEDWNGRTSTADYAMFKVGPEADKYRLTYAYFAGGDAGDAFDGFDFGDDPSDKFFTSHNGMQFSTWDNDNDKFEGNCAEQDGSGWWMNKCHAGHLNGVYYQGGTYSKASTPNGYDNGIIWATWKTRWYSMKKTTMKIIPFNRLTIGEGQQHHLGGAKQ
# [2] = target: T1, c-Met (soluble recombinant, hepatocyte …); assay: FCS; serum protein mix: HSA, IgG, transferrin, fibrinogen; PBS pH 7.4; aptamer folded in PBS with 5 mM MgCl2 (1 mM for AS1411 and 36t), 90 C 2 min then cooled; final buffer not detailed; overnight at room temperature; 100 pM aptamer (1 nM for serum proteins); settings: protein: commercial; tags: polyhistidine tag; label: 5'-atto633; G-quadruplex
# [3] = target: T1, c-Met (soluble recombinant, hepatocyte …); assay: FCS kinetics (koff/kon); kon 1.70e4 M-1 s-1; koff 4.30e-4 s-1; PBS pH 7.4; aptamer folded in PBS with 5 mM MgCl2 (1 mM for AS1411 and 36t), 90 C 2 min then cooled; final buffer not detailed; overnight at room temperature; 100 pM aptamer (1 nM for serum proteins); settings: protein: commercial; tags: polyhistidine tag; label: 5'-atto633; G-quadruplex
# transferrin (Tf) = transferrin (Tf) (Homo sapiens, UniProt P02787 20-698); assay: FCS; Tf 1-100 uM; PBS pH 7.4; aptamer folded in PBS with 5 mM MgCl2 (1 mM for AS1411 and 36t), 90 C 2 min then cooled; final buffer not detailed; overnight at room temperature; 100 pM aptamer (1 nM for serum proteins); settings: protein: native; label: 5'-atto633; G-quadruplex
# Chain of transferrin (Tf) (P02787 20-698): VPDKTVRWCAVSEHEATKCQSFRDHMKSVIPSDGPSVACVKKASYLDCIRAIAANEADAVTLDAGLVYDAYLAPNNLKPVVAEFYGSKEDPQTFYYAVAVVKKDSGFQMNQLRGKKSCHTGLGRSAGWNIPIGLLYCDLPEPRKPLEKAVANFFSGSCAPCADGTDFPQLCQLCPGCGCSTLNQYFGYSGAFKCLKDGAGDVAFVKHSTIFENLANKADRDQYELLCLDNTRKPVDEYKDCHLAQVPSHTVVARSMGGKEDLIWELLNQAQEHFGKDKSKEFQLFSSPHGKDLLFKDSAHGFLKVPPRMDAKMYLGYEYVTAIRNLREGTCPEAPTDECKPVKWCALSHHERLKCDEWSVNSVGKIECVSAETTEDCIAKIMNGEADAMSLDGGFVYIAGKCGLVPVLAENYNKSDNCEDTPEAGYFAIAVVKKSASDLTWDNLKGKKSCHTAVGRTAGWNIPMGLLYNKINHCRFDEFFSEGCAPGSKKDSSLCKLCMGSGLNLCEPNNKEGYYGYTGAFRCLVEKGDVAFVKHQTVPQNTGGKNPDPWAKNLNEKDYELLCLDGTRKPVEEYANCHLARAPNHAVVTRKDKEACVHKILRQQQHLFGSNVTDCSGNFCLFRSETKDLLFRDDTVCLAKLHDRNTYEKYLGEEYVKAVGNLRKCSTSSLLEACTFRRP
# [4] = target: T1, c-Met (soluble recombinant, hepatocyte …); assay: FCS; c-Met up to 100 nM; PBS pH 7.4; aptamer folded in PBS with 5 mM MgCl2 (1 mM for AS1411 and 36t), 90 C 2 min then cooled; final buffer not detailed; overnight at room temperature; 100 pM aptamer (1 nM for serum proteins); settings: protein: commercial; tags: polyhistidine tag; chain copies: 2; label: 5'-atto633; G-quadruplex destabilized
binder,measurement,setting,value
B1,Kd,nucleolin (NCL),30 nM
B2,Kd,PDGF-BB,< 1 nM
B3,Kd,[1],5 ± 1 nM
same,binding result,fibrinogen (Fibr),no binding
same,Kd,[2],5 nM
same,Kd,[3],~25 nM
same,binding result,transferrin (Tf),no binding
B4,binding result,[4],no binding
